This is an account of results in patent publication US20230235059A1 (published 2023).

Holding throughout (assay): SPR
Experiment [1] addresses T1, Recombinant cynomolgus monkey PD-1-His (Sino Biological catalog #90311-C08H).
T1 chain: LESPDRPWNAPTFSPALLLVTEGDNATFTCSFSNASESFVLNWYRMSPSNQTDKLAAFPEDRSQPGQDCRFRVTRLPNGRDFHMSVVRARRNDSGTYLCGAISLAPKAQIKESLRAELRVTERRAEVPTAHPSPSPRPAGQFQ

Experiment [2] has as its target T2, Recombinant rhesus monkey PD-1-His (Sino Biological catalog #90305-K08H).
T2 chain: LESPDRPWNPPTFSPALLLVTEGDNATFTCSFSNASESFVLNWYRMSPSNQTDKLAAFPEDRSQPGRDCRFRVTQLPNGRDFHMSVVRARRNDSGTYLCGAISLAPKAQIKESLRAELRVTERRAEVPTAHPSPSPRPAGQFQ

Experiment [3] has as its target Recombinant human PD-1-His (Sino Biological catalog #10377-H08H-B) (UniProt Q15116 25-167).

B1: HPD-BB9 (antibody, V domains shown)
VH: QVQLVQSGAEVKKPGASVKVSCKASGFRLTTNGISWVRQAPGQGLEWMGWISAGGGPTNYAQKLQGRVTMTTDTSTSTAYMELRSLRSDDTAVYYCAKGLYGTKDAWGQGTLVTVSS
VL: QSVLTQPPSVSEVPGQRVTISCSGGGSNIGSNAVNWYQHFPGKAPKLLIYYNDLLPSGVSDRFSASKSGTSASLAISGLRSEDEADYYCAAWDDNLSAYVFATGTKVTVL
As for B1, the results for the Kd in experiment [1], in experiment [2] and in experiment [3] were 35.2 nM, 3.33 nM and 12.2 nM, respectively.
